Laboratory results as given in patent US11225644B2, “Cell culture method, cell aggregates, cell aggregation control agent, and medium” (THE UNIVERSITY OF TOKYO, priority 2015, dated 2022).

B1: recombinant E-cadherin: recombinant E-cadherin (hRP-0339, manufactured by LD Biopharma) (protein, UniProt P12830 155-882, looked up)
Cadherin-1: DWVIPPISCPENEKGPFPKNLVQIKSNKDKEGKVFYSITGQGADTPPVGVFIIERETGWLKVTEPLDRERIATYTLFSHAVSSNGNAVEDPMEILITVTDQNDNKPEFTQEVFKGSVMEGALPGTSVMEVTATDADDDVNTYNAAIAYTILSQDPELPDKNMFTINRNTGVISVVTTGLDRESFPTYTLVVQAADLQGEGLSTTATAVITVTDTNDNPPIFNPTTYKGQVPENEANVVITTLKVTDADAPNTPAWEAVYTILNDDGGQFVVTTNPVNNDGILKTAKGLDFEAKQQYILHVAVTNVVPFEVSLTTSTATVTVDVLDVNEAPIFVPPEKRVEVSEDFGVGQEITSYTAQEPDTFMEQKITYRIWRDTANWLEINPDTGAISTRAELDREDFEHVKNSTYTALIIATDNGSPVATGTGTLLLILSDVNDNAPIPEPRTIFFCERNPKPQVINIIDADLPPNTSPFTAELTHGASANWTIQYNDPTQESIILKPKMALEVGDYKINLKLMDNQNKDQVTTLEVSVCDCEGAAGVCRKAQPVEAGLQIPAILGILGGILALLILILLLLLFLRRRAVVKEPLLPPEDDTRDNVYYYDEEGGGEEDQDFDLSQLHRGLDARPEVTRNDVAPTLMSVPRYLPRPANPDEIGNFIDENLKAADTDPTAPPYDSLLVFDYEGSGSEAASLSSLNSSESDKDQDYDYLNEWGNRFKKLADMYGGGEDD
B2: E-cadherin-Fc: fusion protein of mouse E-cadherin extracellular domain and mutated IgG1-Fc domain (T252M/T254S) (protein)
chain: DWVIPPISCPENEKGEFPKNLVQIKSNRDKETKVFYSITGQGADKPPVGVFIIERETGWLKVTQPLDREAIAKYILYSHAVSSNGEAVEDPMEIVITVTDQNDNRPEFTQPVFEGFVAEGAVPGTSVMKVSATDADDDVNTYNAAIAYTIVSQDPELPHKNMFTVNRDTGVISVLTSGLDRESYPTYTLVVQAADLQGEGLSTTAKAVITVKDINDNAPVFNPSTYQGQVPENEVNARIATLKVTDDDAPNTPAWKAVYTVVNDPDQQFVVVTDPTTNDGILKTAKGLDFEAKQQYILHVRVENEEPFEGSLVPSTATVTVDVVDVNEAPIFMPAERRVEVPEDFGVGQEITSYTAREPDTFMDQKITYRIWRDTANWLEINPETGAIFTRAEMDREDAEHVKNSTYVALIIATDDGSPIATGTGTLLLVLLDVNDNAPIPEPRNMQFCQRNPQPHIITILDPDLPPNTSPFTAELTHGASVNWTIEYNDAAQESLILQPRKDLEIGEYKIHLKLADNQNKDQVTTLDVHVCDCEGTVNNCMKAGIVAAGLQV
modifications: left off: a dimerising Fc or GST

Key:
Type in all cases: cell-based, human
hiPS cells (TkDN4-M) [1] = assay: Observation of cell aggregates after 1 day of rotation culture (Example 2); details: 10 μg/ml, FIG. 5; for uniformity of aggregate diameters compared to Comparative Example 2-1: mTeSR1, rotation culture 90 rpm for 1 day
Protocol: To a 12-well plate subjected to low-cell-adhesion treatment, 1 mL of mTeSR®1 was added, and hiPS cells (TkDN4-M, Stem Cell Bank, The University of Tokyo) ([…] cells/ml) provided in advance and, as a substance that inhibits a cell adhesion molecule(s) of the hiPS cells, recombinant E-cadherin (hRP-0339, manufactured by LD Biopharma) (10 μg/ml) were added at the same time, followed by performing rotation culture at a speed of 90 rpm for 1 day.
Aggregates were obtained in the same manner as in Example 2-1 except that a neutralizing antibody against E-cadherin (E-cadherin antibody MAB3199Z, manufactured by Millipore) ([…]) was used as the substance that inhibits a cell adhesion molecule(s) of the hiPS cells in Example 2-2.
Aggregates were obtained in the same manner as in Example 2-1 except that E-cadherin-Fc (10 μg/ml) was used as the substance that inhibits a cell adhesion molecule(s) of the hiPS cells in Example 2-3.
Morphology of cell aggregates in Examples 2-1 to 2-3 and Comparative Example 2-1 was observed using a phase-contrast microscope (product name. DM IRB; manufactured by LEICA).

hiPS cells (TkDN4-M) [2] = assay: Diameters of cell aggregates in rotation suspension culture in mTeSR1 (Example 1)
Protocol: As pluripotent stem cells, hiPS cells (TkDN4-M, Stem Cell Bank, The University of Tokyo) were used. These cells were plated on the above culture plate at a density of 100,000 to 400,000 cells/well, and cultured for four days. The culture was carried out using, as a culture medium, 2 mL/well of mTeSR®1 (manufactured by StemCell Technologies). During the culture, medium replacement was carried out every day except for the day after the plating.
For detachment and collection of cells, TrypLE® select (manufactured by Life Technologies), which is a trypsin-like enzyme, was used. After removal of the culture liquid, TrypLE® select was added to the wells at 1 mL/well, and the plate was incubated at 37° C. for 2 to 5 minutes. Thereafter, TrypLE® select was removed, and mTeSR®1 supplemented with 10 μM Y-27632, which is a ROCK inhibitor, was added to the wells at 2 mL/well, followed by pipetting using a 1000-μL micropipette to detach the cells. The collected cell suspension was passed through a 40-μm cell strainer (BD) to collect the cells as single cells and/or microaggregates, to thereby obtain cells to be applied to suspension culture.
In the following Examples and Comparative Examples, morphology and sizes of cell aggregates during the culture period were observed and measured using a phase-contrast microscope (product name, DM IRB; manufactured by LEICA). […]

hiPS cells (TkDN4-M) [3] = assay: Measurement of glucose consumption, mTeSR1 culture (Example 1); details: Day 5 of the culture
Protocol: (§1) […] The sizes of the aggregates 48 hours after the E-cadherin-Fc treatment were within the range of 300 to 700 μm. Subsequently, medium replacement was carried out, and culture was carried out for three days under the same conditions as described above except that E-cadherin-Fc was not added, to obtain aggregates. The sizes of the aggregates were within the range of 500 to 1000 μm.
(§2) During the whole culture period, 300 μL of the culture liquid was collected upon replacement of the medium, and the glucose concentration was analyzed using an enzyme-electrode type bioanalyzer (YS12950) to calculate changes in the glucose consumption.

hiPS cells (TkDN4-M) [4] = assay: Measurement of live cell number after culture, mTeSR1 (Example 1); details: Day 5 of the culture
Protocol: as §1
(§3) After completion of the culture, the cells were dispersed into single cells using TrypLE® select, and the number of live cells was counted using trypan blue (manufactured by Life Technologies) and an eosinophil counter (manufactured by Tatai).

hiPS cells (TkDN4-M) [5] = assay: Observation of cell aggregates in rotation suspension culture in Essential 8 (Example 3); details: Day 5 of the culture, Essential 8, E-cadherin-Fc 50 or 100 μg/ml for first 48 hours, 100 rpm
Protocol: (§4) To a 12-well plate subjected to low-cell-adhesion treatment, 1 mL of Essential 8® was added, and hiPS cells (TkDN4-M, Stem Cell Bank, The University of Tokyo) (2×10^5 cells/ml) provided in advance and, as a substance that inhibits a cell adhesion molecule(s) of the hiPS cells, E-cadherin-Fc (50 μg/ml) were added at the same time, followed by performing rotation culture at a speed of 100 rpm for 5 days. On Day 2 of the culture and thereafter (from 48 hours after the beginning of the culture), medium replacement was carried out every day with a medium to which E-cadherin-Fc was not added.
Aggregates were obtained in the same manner as in […] except that the concentration of E-cadherin-Fc in Example 3-1 was 100 μg/ml.
Morphology of cell aggregates in Examples 3-1 and 3-2, and Comparative Example 3-1 on Day 2 and Day 5 of the culture was observed using a phase-contrast microscope (product name, DM IRB; manufactured by LEICA). From the results shown in FIGS. 6 and 7, it can be seen that the size of the aggregates can be controlled also in cases where Essential 8® is used as the medium. On Day 5 of the culture, in the cases where E-cadherin-Fc was added, the size of the aggregates was larger than that on Day 2 of the culture, and the diameter of the aggregates was controlled at about 500 μm.

hiPS cells (TkDN4-M) [6] = assay: Measurement of glucose consumption, Essential 8 culture (Example 3); details: Examples 3-1 and 3-2 (50, 100 μg/ml) vs Comparative Example 3-1, Essential 8, FIG. 8
Protocol: as §2, §4

hiPS cells (TkDN4-M) [7] = assay: Measurement of number of cells, Essential 8 culture (Example 3); details: Examples 3-1 and 3-2 (50, 100 μg/ml) vs Comparative Example 3-1, Essential 8, after 5 days, FIG. 9
Protocol: as §3, §4

Row | Molecule | uniformity of aggregate diameters compared to Comparative Example 2-1 (hiPS cells (TkDN4-M) [1]) | morphology of cell aggregates compared to Comparative Example 1-1 (hiPS cells (TkDN4-M) [2]; 5, 10, 20, 50 and 100 μg/ml, Day 2 of the culture, FIG. 2) | suppression of excessive aggregation and formation of uniform aggregates (hiPS cells (TkDN4-M) [2]; concentration within 10 to 50 μg/ml, Day 2, simple rotation culture) | glucose consumption compared to Comparative Example 1-1 (hiPS cells (TkDN4-M) [3]; Example 1-1, 5 μg/ml) | glucose consumption compared to Comparative Example 1-1 (hiPS cells (TkDN4-M) [3]; Example 1-2, 10 μg/ml) | glucose consumption compared to Comparative Example 1-1 (hiPS cells (TkDN4-M) [3]; Example 1-3, 20 μg/ml) | glucose consumption compared to Comparative Example 1-1 (hiPS cells (TkDN4-M) [3]; Example 1-4, 50 μg/ml) | glucose consumption compared to Comparative Example 1-1 (hiPS cells (TkDN4-M) [3]; Example 1-5, 100 μg/ml) | number of cells compared to Comparative Example 1-1 (hiPS cells (TkDN4-M) [4]; Example 1-2, 10 μg/ml) | number of cells compared to Comparative Example 1-1 (hiPS cells (TkDN4-M) [4]; Example 1-3, 20 μg/ml) | number of cells compared to Comparative Example 1-1 (hiPS cells (TkDN4-M) [4]; Example 1-4, 50 μg/ml) | number of cells compared to Comparative Example 1-1 (hiPS cells (TkDN4-M) [4]; Example 1-5, 100 μg/ml) | aggregates compared to recombinant E-cadherin or neutralizing antibody against E-cadherin (hiPS cells (TkDN4-M) [1]; rotation culture for 1 day) | diameter of the aggregates (hiPS cells (TkDN4-M) [5]) | glucose consumption (hiPS cells (TkDN4-M) [6]) | number of cells (hiPS cells (TkDN4-M) [7])
1 | B1 | more uniformly controlled diameters | – | – | – | – | – | – | – | – | – | – | – | – | – | – | –
2 | B2 | more uniformly controlled diameters | better-controlled sizes | effective | about twice | 2 times | 2.5 times | 2.5 times | 2 times | about 1.8 times | about 2.5 times | about 3 times | about 2.3 times | larger aggregates having more uniform shapes | about 500 μm | excellent effect | excellent effect
